In one experiment the target is biotin-… peptide. Put plainly: phage ELISA, biotinylated peptide on streptavidin-coated wells, anti-M13 HRP and ABTS, 35 min at room temperature. For orientation: ELISA stands for enzyme-linked immunosorbent assay.
The target of experiment [1] is T1, recombinant phage displaying CASK PDZ domain (PDZ domain of human hCASK, hCASK-PDZopt in pCANTAB5E) (human, UniProt O14936 480-577).
T1 construct: also called wildtype hCASK-PDZ
T1 sequence: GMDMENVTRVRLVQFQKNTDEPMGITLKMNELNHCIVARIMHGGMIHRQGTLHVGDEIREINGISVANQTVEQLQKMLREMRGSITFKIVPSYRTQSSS
In words: phage ELISA.

Several values for one entry are separate records, joined by “and”; a condition that tells them apart may be missing. Identical values can stand only once. Where no end group is shown, it is not given here. The star is where a group is joined. Biotin = O=C1N[C@H]2[C@H](CS[C@H]2CCCCC(=O)*)N1

On to “phage-displayed third PDZ domain of human Dlg1 (in pCANTAB5E)”, for which the OD405 in the experiment with biotin-… peptide is 0.51 OD405 and 0.46 OD405.

B1: biotin-QKAPTKEFYA peptide (peptide)
peptide: Biotin-QKAPTKEFYA
notes: also called cognate peptide ligand of hCASK PDZ; C-terminus of syndecan-2
With B1, the binding result in experiment [1] is on record as “binds”.

The record behind these values is patent US20070218001A1 (BIOTECH STUDIO, published 2007).
